Results reported in PMC12548442.

Assays:
Test in all cases: NanoBRET
[1] = molecular target: HaloTag-fused and NanoLuc-fused Gag-CA-WM184/185AA (NanoBRET pair); details: living cells; n = 6; mean ± SE; WMAA signal subtracted; parent: est. 100; read off a plot
[2] = molecular target: HaloTag-fused and NanoLuc-fused Gag-MA-S9A (NanoBRET pair); details: living cells; n = 6; mean ± SE; WMAA signal subtracted; parent: est. 100; read off a plot
[3] = molecular target: HaloTag-fused and NanoLuc-fused Gag-MA-S9F (NanoBRET pair); details: living cells; n = 6; mean ± SE; WMAA signal subtracted; parent: est. 100; read off a plot
[4] = molecular target: HaloTag-fused and NanoLuc-fused Gag-MA-G2A (NanoBRET pair); details: living cells; n = 6; mean ± SE; WMAA signal subtracted; parent: est. 100
[5] = molecular target: HaloTag-fused and NanoLuc-fused Gag-MA-S9I (NanoBRET pair); details: living cells; n = 6; mean ± SE; WMAA signal subtracted; parent: est. 100; read off a plot
[6] = molecular target: HaloTag-fused and NanoLuc-fused Gag-MA-S9W (NanoBRET pair); details: living cells; n = 6; mean ± SE; WMAA signal subtracted; parent: est. 100; read off a plot

## HaloTag-fused Gag and NanoLuc-fused Gag, wild type (NanoBRET pair) W184A; M185A
[1]
  percent of parent: 0%

## HaloTag-fused Gag and NanoLuc-fused Gag, wild type (NanoBRET pair) S9A
[2]
  percent of parent: 72%

## HaloTag-fused Gag and NanoLuc-fused Gag, wild type (NanoBRET pair) S9F
[3]
  percent of parent: 8.6%

## HaloTag-fused Gag and NanoLuc-fused Gag, wild type (NanoBRET pair) G2A
[4]
  percent of parent: 0%

## HaloTag-fused Gag and NanoLuc-fused Gag, wild type (NanoBRET pair) S9I
[5]
  percent of parent: 68%

## HaloTag-fused Gag and NanoLuc-fused Gag, wild type (NanoBRET pair) S9W
[6]
  percent of parent: 42%
